The results in this text go back to EP4711384A1 (WIO Bioscience Co., Ltd., dated 2026).

In test [1] the target is human IL-18R1 and IL-18RAP on IL-18 Reporter HEK 293 Cells (human) (UniProt Q13478). In words: cell-based or functional assay.
The target is the same in test [2]. Description: cell-based or functional assay. This is another data set of the same source.
For test [3], the target named is T1, human IL-18R1 ECD-His (human) (UniProt Q13478).
T1 sequence: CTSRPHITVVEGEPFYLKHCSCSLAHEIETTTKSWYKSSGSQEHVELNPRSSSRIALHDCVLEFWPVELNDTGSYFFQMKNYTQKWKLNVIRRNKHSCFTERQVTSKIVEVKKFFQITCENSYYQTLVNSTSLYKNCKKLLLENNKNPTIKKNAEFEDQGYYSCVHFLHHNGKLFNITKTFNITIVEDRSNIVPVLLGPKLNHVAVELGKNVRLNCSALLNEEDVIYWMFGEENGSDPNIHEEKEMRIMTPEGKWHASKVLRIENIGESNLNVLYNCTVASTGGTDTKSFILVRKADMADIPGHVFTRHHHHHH
Description: phage ELISA, 4-fold dilution.

The target in test [4] is T2, human IL-18RAP ECD-His (human) (UniProt O95256).
T2 sequence: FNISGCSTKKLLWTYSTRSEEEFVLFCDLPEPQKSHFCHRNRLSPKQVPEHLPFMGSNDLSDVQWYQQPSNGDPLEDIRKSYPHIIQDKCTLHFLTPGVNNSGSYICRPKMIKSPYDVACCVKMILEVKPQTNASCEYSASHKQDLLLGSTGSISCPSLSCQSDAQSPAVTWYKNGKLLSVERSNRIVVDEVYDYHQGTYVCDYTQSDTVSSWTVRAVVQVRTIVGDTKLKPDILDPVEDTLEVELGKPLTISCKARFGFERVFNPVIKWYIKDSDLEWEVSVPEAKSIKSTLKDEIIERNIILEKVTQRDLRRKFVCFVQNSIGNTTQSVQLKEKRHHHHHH
In words: phage ELISA, 4-fold dilution. (In an ELISA, binding on a coated surface is turned into a signal by an enzyme label.)

For test [5], the target named is T1, human IL-18R1 ECD-His (human). In words: phage ELISA, 16-fold dilution.
For test [6], the target named is T2, human IL-18RAP ECD-His (human). Description: phage ELISA, 16-fold dilution.
The target in test [7] is T3, human IL-18R1 and IL-18RAP on IL-18 Reporter HEK 293 Cells (human, UniProt Q13478 19-541; O95256 20-599).
T3 sequence (looked up) 1: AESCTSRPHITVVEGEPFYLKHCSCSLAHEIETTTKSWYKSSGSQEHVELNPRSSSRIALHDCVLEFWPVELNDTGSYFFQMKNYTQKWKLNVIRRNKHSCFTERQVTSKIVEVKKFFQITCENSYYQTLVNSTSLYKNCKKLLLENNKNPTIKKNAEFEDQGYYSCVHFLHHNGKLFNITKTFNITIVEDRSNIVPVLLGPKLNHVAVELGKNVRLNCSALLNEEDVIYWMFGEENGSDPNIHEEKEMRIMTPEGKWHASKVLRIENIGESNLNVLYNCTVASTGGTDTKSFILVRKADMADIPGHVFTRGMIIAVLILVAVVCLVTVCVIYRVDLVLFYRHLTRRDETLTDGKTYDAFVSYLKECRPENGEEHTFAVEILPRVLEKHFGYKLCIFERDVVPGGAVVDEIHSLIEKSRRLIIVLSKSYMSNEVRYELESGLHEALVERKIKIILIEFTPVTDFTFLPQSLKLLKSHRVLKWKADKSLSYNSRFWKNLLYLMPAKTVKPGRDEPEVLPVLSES
T3 sequence (looked up) 2: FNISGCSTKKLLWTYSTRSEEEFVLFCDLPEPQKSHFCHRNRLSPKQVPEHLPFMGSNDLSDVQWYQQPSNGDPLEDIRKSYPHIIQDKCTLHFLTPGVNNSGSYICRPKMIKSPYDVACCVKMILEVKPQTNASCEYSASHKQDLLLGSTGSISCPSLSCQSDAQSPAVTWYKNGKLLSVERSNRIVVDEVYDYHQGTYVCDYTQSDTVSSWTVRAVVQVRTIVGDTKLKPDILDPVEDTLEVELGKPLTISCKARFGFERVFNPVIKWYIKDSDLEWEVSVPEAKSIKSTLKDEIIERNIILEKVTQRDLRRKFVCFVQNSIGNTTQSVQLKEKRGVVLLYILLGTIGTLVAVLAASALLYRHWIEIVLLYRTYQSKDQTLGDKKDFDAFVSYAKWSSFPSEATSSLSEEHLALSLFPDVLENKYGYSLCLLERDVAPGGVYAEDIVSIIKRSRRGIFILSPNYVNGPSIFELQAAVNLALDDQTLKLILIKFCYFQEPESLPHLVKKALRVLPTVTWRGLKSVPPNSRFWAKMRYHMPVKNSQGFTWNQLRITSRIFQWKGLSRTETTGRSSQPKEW
In words: cell-based or functional assay.

The target of test [8] is T3, human IL-18R1 and IL-18RAP on IL-18 …. In words: cell-based or functional assay. The source holds these as a separate data set.
Test [9] has as its target T1, human IL-18R1 ECD-His (human). In words: sandwich ELISA, IL-18RAP ECD-hFc detection.

What is called EC50 is the midpoint of the concentration-response curve. A low value points to a more potent agent.

“And” between values parts separate entries of the source, which are not always exact repeats. Equal entries are not always repeated. Where two headings read alike, the source gives them in different places.

“recombinant human IL-18 (from UniProt Q14116 37-193) (ligand)”: in test [1], the concentration for a half-maximal effect (EC50) was 0.121 ng/mL and the Top630nm is 2.27. Also, in test [2], the EC50 came to 0.117 ng/mL; the EC50, SEAP reporter was 0.107 ng/mL; the Top630nm was determined as 2.44.
In the case of NC, the ELISA OD in test [3] turned out to be 0.059; in test [4], 0.06; in [5], 0.055; in test [6] it was 0.068.

B1: Rap-F11 (VHH)
VHH: QVQLQESGGGSVQPGGSLRLSCAASGFTYIPAYMGWFRQAPGKERERVASIKTDGSTTYADSVNGRFTIAQDTAKNTLYLQMDSLKPEDTAMYYCAAYQFGAFRVWGQGTQVTVSS
For the molecule B1, the figures for the ELISA OD in [4] and in [6] were 2 and 1.58, respectively.

B2: Rap-A10 (VHH)
VHH: QVQLQESGGGLVQAGGSLKLSCAASGYTYGPYCMGWFRQFPGKEREGVAAVGGDGRTWYGNSVKGRFTISQDNAKKTLYLQINALKPEDTAMYYCAADFDRTVCSDDIYDYTYRGQGTQVTVSS
For B2, the ELISA OD was 1.83 in test [4] and 1.57 in test [6].

B3: Rap-C10 (VHH)
VHH: QVQLQESGGGSVQPGGSLRLSCAASGFTYIPAYMGWFRQAPGKERERVASISSTDGSTTYADSVKGRFTVSQDTAKNTLYLQMNSLKPEDTAMYYCAAYQFGAFRVWGQGTQVTVSS
B3: the ELISA OD is 1.85 in [4] and 1.58 in test [6].

B4: Wio-02-01 (R1-A12-GGGGS-Rap-A10) (bispecific antibody)
chain: QVQLQESGGGPVQAGGSLRLSCSASTTAYDNACMGWFRQAPGKEREGVASIHLRDRTYYADSVKGRFTLSRDGASKTLYLQMNSLKPEDSGTYYCASSNICNGLNLQGNTYWGQGTQVTVSSGGGGSQVQLQESGGGLVQAGGSLKLSCAASGYTYGPYCMGWFRQFPGKEREGVAAVGGDGRTWYGNSVKGRFTISQDNAKKTLYLQINALKPEDTAMYYCAADFDRTVCSDDIYDYTYRGQGTQVTVSS
For the molecule B4, in test [7], the “SEAP reporter OD, supernatant 5X” value came out at 2.13 and the “SEAP reporter OD, supernatant 25X” value was determined as 1.92. In addition, in [8], the EC50 turned out to be 1.87 ng/mL. Besides, in test [9], the ELISA OD is 2.14 and 2.26.
